± gives the standard deviation.
Assay: protein stability index of a GFP-peptide fusion (GPS, HEK-293T) (PSI 1-6); higher = more stable
[1] = treatment: DMSO, c terminus: a fixed tail appended
[2] = treatment: MLN4924 1 uM, 8 h, c terminus: a fixed tail appended
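Note: 24-mer peptide tiles fused after GFP, lentivirally expressed, FACS-sorted into six equal bins by GFP/DsRed ratio, decoded by Illumina sequencing, PSI is the read-weighted mean bin number.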

Sequence: VKLPLPAERVTLADFKGVLQRPSY [DVL3]
- protein stability index [1]: 2.5 ± 0.19
- protein stability index [2]: 2.73 ± 0.36

Sequence: KIKPEARRYLEKSIKMGKRNGLHL [NLN]
- protein stability index [1]: 2.3 ± 0.44
- protein stability index [2]: 2.53 ± 0.39

Sequence: FVGDLSPEITTEDIKAAFAPFGRI [TIA1]
- protein stability index [1]: 3.11 ± 1
- protein stability index [2]: 2.7 ± 0.18

Sequence: SIIILLELAILGGLVYYKFFRSH [VTI1B]
- protein stability index (treatment: DMSO, c terminus: native): 2.78 ± 0.27
- protein stability index (treatment: MLN4924 1 uM, 8 h, c terminus: native): 2.63 ± 0.45

Sequence: PEHGDRVAELFCRRCRRCVCALCP [TRIM14]
- protein stability index [1]: 3.29 ± 0.55
- protein stability index [2]: 3.5 ± 0.1

Sequence: PCGPNMSEVSCKKRDDYLEWPEYF [DCTD]
- protein stability index [1]: 3.56 ± 0.23
- protein stability index [2]: 3.6 ± 0.26

Sequence: APGADVKVHRARKTMPKSVVGLHA [EHMT1]
- protein stability index [1]: 3.7 ± 0.18
- protein stability index [2]: 3.91 ± 0.41

Sequence: KTPYDTSRRQEKSAGDADPENGEI [ELOA2]
- protein stability index [1]: 5.3 ± 0.22
- protein stability index [2]: 5.51 ± 0.17

Sequence: NESHSIKAILKNISVLAFSVCFIF [SLC29A1]
- protein stability index [1]: 2.79 ± 0.61
- protein stability index [2]: 2.54 ± 0.4

Sequence: AGQVTALPVNSPMNKGDTEVMKCI [CHGA]
- protein stability index [1]: 4.12 ± 0.34
- protein stability index [2]: 4.57 ± 0.22

Sequence: VVYSKAASVPKVETVKSDNKDDDI [EIF5]
- protein stability index [1]: 5.23 ± 0.13
- protein stability index [2]: 5.19 ± 0.11

Sequence: DYIMDEDQSKLAGLLDLNNAILQL [ESRRG]
- protein stability index [1]: 2.35 ± 0.25
- protein stability index [2]: 2.6 ± 0.39

Sequence: RDSLSHLVPALRLPGRKLVSSAVS [INTS4]
- protein stability index [1]: 3.04 ± 0.12
- protein stability index [2]: 3.21 ± 0.24

Sequence: GMLSYCDRYSEGIKHVLQTFGPIP [CRYL1]
- protein stability index [1]: 2.72 ± 0.5
- protein stability index [2]: 2.196 ± 0.02

Sequence: NGSDPRSFPLWYEEALKDEEERAQ [MAGEA10]
- protein stability index [1]: 5.34 ± 0.36
- protein stability index [2]: 5.42 ± 0.2

Sequence: SCHGYTLPGACNIPANVSNCNWFC [KRT33B]
- protein stability index [1]: 2.53 ± 0.52
- protein stability index [2]: 2.42 ± 0.5

Sequence: MLKEEHQIILENQKNFGLYVQEKR [RAD54B]
- protein stability index [1]: 2.99 ± 0.24
- protein stability index [2]: 3.62 ± 0.29

Sequence: EKLTKITRTGPSAWETKKILAVSF [PCMTD2]
- protein stability index [1]: 2.57 ± 0.57
- protein stability index [2]: 2.37 ± 0.66

Sequence: RQKEVDFCISLLRERFMECLMIGR [INTS3]
- protein stability index [1]: 2.52 ± 0.74
- protein stability index [2]: 2.28 ± 0.13

Sequence: RTRRRLSRNRDPGRLILSTIRLRP [PWWP2B]
- protein stability index [1]: 4.41 ± 0.45
- protein stability index [2]: 4.32 ± 0.21

Sequence: AQNAVRLHYGLPVVVKLLHPPSHW [CTNNB1]
- protein stability index [1]: 2.32 ± 0.23
- protein stability index [2]: 2.23 ± 0.048

Sequence: QPVDAIKLNLPDYHKIIKNPMDMG [BRD3]
- protein stability index [1]: 3.12 ± 0.35
- protein stability index [2]: 2.92 ± 0.23

Sequence: VESSLDKVVLSDAYAHPQQKVAVY [TRADD]
- protein stability index [1]: 2.88 ± 0.29
- protein stability index [2]: 3.26 ± 0.12

Sequence: ICRVFSTSPAKDSLSFEDFLDLLS [CIB1]
- protein stability index [1]: 2.34 ± 0.25
- protein stability index [2]: 2.2 ± 0.1

Sequence: RSHSREPRAERKCPRIAPADSGRY [ELOA2]
- protein stability index [1]: 4.093 ± 0.032
- protein stability index [2]: 4.25 ± 0.47

Sequence: RGPLNSDRSDYFAAWGARVFSFGK [TRIM43]
- protein stability index [1]: 2.79 ± 0.22
- protein stability index [2]: 2.76 ± 0.22

Sequence: MTSNPITWGQIKKTTQEAEKLLER [CDK11A]
- protein stability index [1]: 4.55 ± 0.24
- protein stability index [2]: 4.31 ± 0.25

Sequence: YSKESIIFGASSVDFSLSGRLLFA [GNB5]
- protein stability index [1]: 2.84 ± 0.74
- protein stability index [2]: 2.78 ± 0.68

Sequence: GSCQLGGGRGVSTCSTRFVSGGSA [KRT13]
- protein stability index [1]: 3.32 ± 0.47
- protein stability index [2]: 3.87 ± 0.21

Sequence: LCDGNPRRPSPVLRHLELLDEFAR [SCNN1D]
- protein stability index [1]: 3.26 ± 0.087
- protein stability index [2]: 3.53 ± 0.26

Sequence: EVTADDRKVKSTITLDGGVLVHVQ [FABP4]
- protein stability index [1]: 3.7 ± 0.37
- protein stability index [2]: 3.99 ± 0.17

Sequence: ANGEIQRHAEQQALRLEVRAGPDS [CARM1]
- protein stability index [1]: 4.56 ± 0.67
- protein stability index [2]: 4.74 ± 0.19

Sequence: EKMTILQTYFRQNRDEVLDNLLAF [ATP6V1G1]
- protein stability index [1]: 2.7 ± 0.46
- protein stability index [2]: 2.632 ± 0.015

Sequence: DDIVSGRLPCSFVTLALLGSYTVQ [EPB41L3]
- protein stability index [1]: 2.72 ± 0.44
- protein stability index [2]: 2.53 ± 0.53

Sequence: NERKVAQLAEENERLKQEIERLTR [DDIT3]
- protein stability index [1]: 5.1 ± 0.37
- protein stability index [2]: 5.18 ± 0.3

Sequence: PEYTYGISNIDTTIEGTSDDLTVV [MFF]
- protein stability index [1]: 4.61 ± 0.15
- protein stability index [2]: 4.56 ± 0.078

Sequence: EEEKILRVKLEEDPDGEEGSSIPW [ZNF24]
- protein stability index [1]: 5.56 ± 0.13
- protein stability index [2]: 5.58 ± 0.26

Sequence: QLSPNLDLDPLELIALANRFCLPH [RHOBTB1]
- protein stability index [1]: 2.27 ± 0.11
- protein stability index [2]: 2.44 ± 0.11

Sequence: KTMPKSVVGLHAASKDPREVREAR [EHMT1]
- protein stability index [1]: 4.78 ± 0.09
- protein stability index [2]: 4.86 ± 0.26

Sequence: LSRLQRVKFCLLGALLAPIRVLLA [LPCAT4]
- protein stability index [1]: 3.67 ± 0.42
- protein stability index [2]: 3.58 ± 0.14

Sequence: SPINMEDQERIKVERKRLRNRLAA [JUNB]
- protein stability index [1]: 4.48 ± 0.55
- protein stability index [2]: 4.65 ± 0.087

Sequence: RDHVETELLKEAELIRNIQELLKR [TEKT4]
- protein stability index [1]: 2.74 ± 0.16
- protein stability index [2]: 3.01 ± 0.36

Sequence: LACGTMSSTCGQLASYPLALVRTR [SLC25A25]
- protein stability index [1]: 1.96 ± 0.16
- protein stability index [2]: 2.36 ± 0.12

Sequence: HTTIVATRHYRPPEVILELGWAQP [CLK3]
- protein stability index [1]: 2.26 ± 0.26
- protein stability index [2]: 2.23 ± 0.16

Source: the supplement of paper PMC10567573
